Assay results from US20220177587A1, “METHODS AND USES OF VARIANT CD80 FUSION PROTEINS AND RELATED CONSTRUCTS” (Alpine Immune Sciences, Inc., priority 2018, published 2022).
pEC50: −log10 of the molar value. Blank lines part the entries; values can stand above or below the substance they belong to.

What was measured:
[1] = molecular target: human CTLA-4 (huCTLA4), on stably transduced CHO cells (human) (UniProt P16410); assay: flow cytometry on CHO cells stably expressing huCTLA4, 33.3 nM Fc fusion, PE anti-human Fc
[2] = molecular target: CD28, endogenously expressed on Jurkat/IL2 reporter cells (human) (UniProt P10747); assay: flow cytometry on Jurkat/IL2 reporter cells (endogenous CD28), 33.3 nM Fc fusion, PE anti-human Fc
human CTLA-4 (human) [3] = molecular target: human CTLA-4 (human) (UniProt P16410); assay: flow cytometry, CHO cells expressing huCTLA-4
PD-L1 (human) [4] = molecular target: PD-L1 (human) (UniProt Q9NZQ7); assay: flow cytometry, CHO cells expressing huPD-L1
CD28 (human) [5] = molecular target: CD28 (human) (UniProt P10747); assay: flow cytometry, Jurkat/IL2 reporter cells (CD28)
CD28 (human) [6] = molecular target: CD28 (human) (UniProt P10747); assay: flow cytometry, Jurkat cells (CD28)
PD-L1 (human) [7] = molecular target: PD-L1 (human) (UniProt Q9NZQ7); assay: flow cytometry, MFI on PD-L1 cells over MFI on CD28 cells
PD-L1 (human) [8] = molecular target: PD-L1 (human) (UniProt Q9NZQ7); assay: flow cytometry, CHO cells stably expressing PD-L1
human CTLA-4 (human) [9] = molecular target: human CTLA-4 (human) (UniProt P16410); assay: flow cytometry, CHO cells stably expressing CTLA4
[10] = molecular target: human PD-L1 (huPD-L1), on stably transduced CHO cells (human) (UniProt Q9NZQ7); assay: flow cytometry on CHO cells stably expressing huPD-L1, 33.3 nM Fc fusion, PE anti-human Fc
CD28 (human) [11] = molecular target: CD28 (human) (UniProt P10747)
human CTLA-4 (human) [12] = molecular target: human CTLA-4 (human) (UniProt P16410); assay: flow cytometry, CHO cells stably expressing CTLA4; remark: listed apart in the source
CD28 (human) [13] = molecular target: CD28 (human) (UniProt P10747); assay: flow cytometry, Jurkat cells (CD28); remark: listed apart in the source
PD-L1 (human) [14] = molecular target: PD-L1 (human) (UniProt Q9NZQ7); assay: flow cytometry, CHO cells stably expressing PD-L1; remark: listed apart in the source
CD28 (human) [15] = molecular target: CD28 (human) (UniProt P10747); remark: listed apart in the source

Chain of human CTLA-4 (human) (P16410 36-223): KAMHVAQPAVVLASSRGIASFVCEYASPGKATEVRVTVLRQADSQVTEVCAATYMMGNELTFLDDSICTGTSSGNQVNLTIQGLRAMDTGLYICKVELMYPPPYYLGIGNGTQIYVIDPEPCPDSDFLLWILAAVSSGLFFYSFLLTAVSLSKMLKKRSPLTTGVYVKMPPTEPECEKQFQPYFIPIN
Chain of human CTLA-4 (huCTLA4), on stably transduced CHO cells (human) (P16410 36-223): as above
Chain of human PD-L1 (huPD-L1), on stably transduced CHO cells (human) (Q9NZQ7 19-290): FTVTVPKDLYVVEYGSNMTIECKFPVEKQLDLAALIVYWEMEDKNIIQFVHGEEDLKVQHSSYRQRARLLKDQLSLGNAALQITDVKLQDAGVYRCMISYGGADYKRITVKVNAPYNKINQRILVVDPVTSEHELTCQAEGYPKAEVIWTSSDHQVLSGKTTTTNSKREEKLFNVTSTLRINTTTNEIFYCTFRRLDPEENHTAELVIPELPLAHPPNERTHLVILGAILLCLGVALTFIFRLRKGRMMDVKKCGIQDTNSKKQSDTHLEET
Chain of PD-L1 (human) (Q9NZQ7 19-290): as above

MFI at 33.3 nM [1]: 31200 MFI
MFI at 33.3 nM [2]: 99.4 MFI
Substance: variant CD80 IgV-Fc E35D/M47V/T62S/L85Q (Fc fusion)

MFI at 33.3 nM (human CTLA-4 (human) [3]): 49700 MFI
MFI at 33.3 nM (PD-L1 (human) [4]): 3900 MFI
Substance: variant CD80 IgV-Fc D46V/M47L (Fc fusion)

MFI at 33.3 nM (human CTLA-4 (human) [3]): 42900 MFI
MFI at 33.3 nM (CD28 (human) [5]): 134 MFI
MFI at 33.3 nM (PD-L1 (human) [4]): 2580 MFI
Substance: variant CD80 IgV-Fc E35D (Fc fusion)

Fold change to WT CD80 (CD28 (human) [6]): 21.1 fold
MFI at 33.3 nM (CD28 (human) [6]): 928 MFI
Ratio of PDL1:CD28 (PD-L1 (human) [7]): 32.7
Fold change to WT CD80 (PD-L1 (human) [8]): 697 fold
MFI at 33.3 nM (PD-L1 (human) [8]): 30400 MFI
Fold change to WT CD80 (human CTLA-4 (human) [9]): 17.4 fold
MFI at 33.3 nM (human CTLA-4 (human) [9]): 23700 MFI
Substance: variant CD80 IgV-Fc H18Y/E35D/M47L/V68M/A71G (Fc fusion)

MFI at 33.3 nM [1]: 26900 MFI
MFI at 33.3 nM [10]: 7140 MFI
Substance: variant CD80 IgV-Fc E35D/M43I/D46E/A71G/L85M (Fc fusion)

MFI at 33.3 nM (human CTLA-4 (human) [3]): 50100 MFI
MFI at 33.3 nM (PD-L1 (human) [4]): 3970 MFI
Substance: variant CD80 IgV-Fc E35D/D46V (Fc fusion)

MFI at 33.3 nM [10]: 6460 MFI
MFI at 33.3 nM [2]: 841 MFI
Substance: variant CD80 IgV-Fc H18Y/E35D/M47V/N48K (Fc fusion)

MFI at 33.3 nM (human CTLA-4 (human) [3]): 19100 MFI
MFI at 33.3 nM (PD-L1 (human) [4]): 11500 MFI
Substance: variant CD80 IgV-Fc N48K/V68M/K89N (Fc fusion)

MFI at 33.3 nM (CD28 (human) [5]): 1530 MFI
MFI at 33.3 nM (PD-L1 (human) [4]): 17400 MFI
Substance: variant CD80 IgV-Fc E35D/N48K/V68M/K89N (Fc fusion)

MFI at 33.3 nM (human CTLA-4 (human) [3]): 28100 MFI
MFI at 33.3 nM (CD28 (human) [5]): 159 MFI
MFI at 33.3 nM (PD-L1 (human) [4]): 15300 MFI
Substance: variant CD80 IgV-Fc E35D/M47L/V68M/L85Q (Fc fusion)

Fold change to WT CD80 (CD28 (human) [6]): 50.4 fold
MFI at 33.3 nM (CD28 (human) [6]): 2210 MFI
Ratio of PDL1:CD28 (PD-L1 (human) [7]): 13.7
Fold change to WT CD80 (PD-L1 (human) [8]): 693 fold
MFI at 33.3 nM (PD-L1 (human) [8]): 30200 MFI
Fold change to WT CD80 (human CTLA-4 (human) [9]): 16 fold
MFI at 33.3 nM (human CTLA-4 (human) [9]): 21700 MFI
Substance: variant CD80 IgV-Fc A26E/E35D/M47L/V68M/A71G/D90G (Fc fusion)

MFI at 33.3 nM [10]: 3030 MFI
MFI at 33.3 nM [2]: 582 MFI
Substance: variant CD80 IgV-Fc E35D/N48K/L72V (Fc fusion)

MFI at 33.3 nM (human CTLA-4 (human) [3]): 32400 MFI
MFI at 33.3 nM (CD28 (human) [5]): 197 MFI
MFI at 33.3 nM (PD-L1 (human) [4]): 622 MFI
Substance: variant CD80 IgV-Fc M47V/K89N (Fc fusion)

Fold change to WT CD80 (CD28 (human) [6]): 0.7 fold
MFI at 33.3 nM (CD28 (human) [6]): 32 MFI
Ratio of PDL1:CD28 (PD-L1 (human) [7]): 737
Fold change to WT CD80 (PD-L1 (human) [8]): 541 fold
MFI at 33.3 nM (PD-L1 (human) [8]): 23600 MFI
Fold change to WT CD80 (human CTLA-4 (human) [9]): 21.1 fold
MFI at 33.3 nM (human CTLA-4 (human) [9]): 28600 MFI
Substance: variant CD80 IgV-Fc H18Y/A26E/M47L/V68M/D90G (Fc fusion)

MFI at 33.3 nM (PD-L1 (human) [4]): 16600 MFI
Substance: variant CD80 IgV-Fc E35D/M47V/V68M (Fc fusion)

MFI at 33.3 nM (human CTLA-4 (human) [3]): 3290 MFI
MFI at 33.3 nM (CD28 (human) [5]): 91.7 MFI
MFI at 33.3 nM (PD-L1 (human) [4]): 347 MFI
Substance: variant CD80 IgV-Fc V68M/L85Q (Fc fusion)

MFI at 33.3 nM [1]: 32200 MFI
MFI at 33.3 nM [10]: 2820 MFI
MFI at 33.3 nM [2]: 3450 MFI
Substance: variant CD80 IgV-Fc E35D/D46E/A91G (Fc fusion)

Jurkat/IL2 reporter RLU at 50 nM, CHO/OKT3 aAPC without PD-L1 (CD28 (human) [11]): 515 RLU
Substance: CD80 E35D/M43L/L70M IgV-Fc (inert) (Fc fusion)

MFI at 33.3 nM (human CTLA-4 (human) [3]): 44600 MFI
MFI at 33.3 nM (CD28 (human) [5]): 413 MFI
MFI at 33.3 nM (PD-L1 (human) [4]): 3080 MFI
Substance: variant CD80 IgV-Fc M47V/N48K (Fc fusion)

MFI at 33.3 nM (human CTLA-4 (human) [3]): 24800 MFI
Substance: variant CD80 IgV-Fc E35D/V68M/K89N (Fc fusion)

MFI at 33.3 nM (human CTLA-4 (human) [3]): 2330 MFI
MFI at 33.3 nM (PD-L1 (human) [4]): 538 MFI
Substance: variant CD80 IgV-Fc V68M/K89N (Fc fusion)

MFI at 33.3 nM (human CTLA-4 (human) [3]): 32200 MFI
MFI at 33.3 nM (PD-L1 (human) [4]): 23600 MFI
Substance: variant CD80 IgV-Fc E35D/D46V/V68M/L85Q (Fc fusion)

MFI at 33.3 nM (human CTLA-4 (human) [3]): 7570 MFI
MFI at 33.3 nM (PD-L1 (human) [4]): 4170 MFI
Substance: variant CD80 IgV-Fc D46V/V68M/L85Q (Fc fusion)

Fold change to WT CD80 (CD28 (human) [6]): 63.6 fold
MFI at 33.3 nM (CD28 (human) [6]): 2790 MFI
Ratio of PDL1:CD28 (PD-L1 (human) [7]): 10.7
Fold change to WT CD80 (PD-L1 (human) [8]): 687 fold
MFI at 33.3 nM (PD-L1 (human) [8]): 29900 MFI
Fold change to WT CD80 (human CTLA-4 (human) [9]): 14.6 fold
MFI at 33.3 nM (human CTLA-4 (human) [9]): 19900 MFI
Substance: variant CD80 IgV-Fc H18Y/E35D/M47L/V68M/A71G/D90G (Fc fusion)

pEC50 (human CTLA-4 (human) [12]): 8.40
MFI at 66.7 nM (human CTLA-4 (human) [12]): 25300
MFI at 66.7 nM (CD28 (human) [13]): 120
MFI at 66.7 nM (PD-L1 (human) [14]): 104
Substance: Wildtype CD80 ECD-Fc (effector Fc, Example 31) (Fc fusion)

MFI at 33.3 nM [1]: 25900 MFI
MFI at 33.3 nM [10]: 5630 MFI
MFI at 33.3 nM [2]: 816 MFI
Substance: variant CD80 IgV-Fc E35D/M47I/N48K/I61F (Fc fusion)

IL-2 release, primary T cells + K562/OKT3 (No PD-L1), 100 nM (CD28 (human) [15]): 6260
Substance: WT IgG1 Fc Control

MFI at 33.3 nM (human CTLA-4 (human) [12]): 13900 MFI
MFI at 33.3 nM (CD28 (human) [13]): 66 MFI
MFI at 33.3 nM (PD-L1 (human) [14]): 2860 MFI
Substance: CD80 IgV-Fc E24D/Q27R/E35D/T41S/M47V/L85Q (Fc fusion)

MFI at 33.3 nM [1]: 21900 MFI
MFI at 33.3 nM [10]: 8170 MFI
MFI at 33.3 nM [2]: 990 MFI
Substance: variant CD80 IgV-Fc V22A/E35D/M47L/A71G (Fc fusion)
